Assay results from paper PMC3624071 (Biochemistry, 2013).

Experiments:
[1] = biological target: T1, EutB subunit of ethanolamine ammonia-lyase (EAL) from the EALH6 construct (S. typhimurium, UniProt P19264 1-453); test: pull-down
T1 sequence: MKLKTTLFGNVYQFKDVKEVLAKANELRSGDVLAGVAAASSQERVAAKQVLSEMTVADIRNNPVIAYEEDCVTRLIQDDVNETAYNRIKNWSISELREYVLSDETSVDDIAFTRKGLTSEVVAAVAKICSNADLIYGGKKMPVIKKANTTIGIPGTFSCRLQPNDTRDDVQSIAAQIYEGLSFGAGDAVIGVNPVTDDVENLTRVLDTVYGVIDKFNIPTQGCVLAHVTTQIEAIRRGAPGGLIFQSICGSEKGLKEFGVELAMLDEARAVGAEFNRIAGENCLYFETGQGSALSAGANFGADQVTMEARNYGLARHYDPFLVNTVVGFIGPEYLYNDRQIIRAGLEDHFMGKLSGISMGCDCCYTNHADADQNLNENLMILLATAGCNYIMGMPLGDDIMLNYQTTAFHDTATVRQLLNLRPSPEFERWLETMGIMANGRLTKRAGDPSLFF

[2] = biological target: T1, EutB subunit of ethanolamine …; test: pull-down; remark: listed apart in the source

B1: EutC subunit of ethanolamine ammonia-lyase (EAL) from the EALH6 construct (natural protein)
chain: MDQKQIEEIVRSVMASMGQDVPQPAAPSTQEGAKPQCAAPTVTESCALDLGSAEAKAWIGVENPHRADVLTELRRSTAARVCTGRAGPRPRTQALLRFLADHSRSKDTVLKEVPEEWVKAQGLLEVRSEISDKNLYLTRPDMGRRLSPEAIDALKSQCVMNPDVQVVVSDGLSTDAITANYEEILPPLLAGLKQAGLNVGTPFFVRYGRVKIEDQIGEILGAKVVILLVGERPGLGQSESLSCYAVYSPRVATTVEADRTCISNIHQGGTPPVEAAAVIVDLAKRMLEQKASGINMTR
stoichiometry N [1]: 1.01 mol EutC per mol EutB
subunit molar ratio after elution with 250 mM imidazole [2]: 0.32 mol EutC per mol EutB
